Measured values as given in patent US7183387 (Genentech, dated 2007).

What was measured:
[1] = biological target: T1, human neonatal Fc receptor (FcRn), biotinylated (human, UniProt P55899 24-297; P61769 21-119, biotinylated (biotin-X-NHS)); assay: FcRn ELISA
T1 construct: captured on streptavidin plates
Method: FcRn Binding ELISA: For measuring FcRn binding activity of IgG variants, ELISA plates were coated with 2 µg/ml streptavidin (Zymed, South San Francisco) in 50 mM carbonate buffer, pH 9.6, at 4° C. overnight and blocked with PBS-0.5% BSA, pH 7.2 at room temperature for one hour. Biotinylated FcRn (prepared using biotin-X-NHS from Research Organics, Cleveland, Ohio and used at 1–2 µg/ml) in PBS-0.5% BSA, 0.05% polysorbate 20, pH 7.2, was added to the plate and incubated for one hour. Two fold serial dilutions of IgG standard (1.6–100 ng/ml) or variants in PBS-0.5% BSA, 0.05% polysorbate 20, pH 6.0, were added to the plate and incubated for two hours. Bound IgG was detected using peroxidase labeled goat F(ab')_2 anti-human IgG F(ab')_2 in the above pH 6.0 buffer (Jackson ImmunoResearch, West Grove, Pa.) followed by 3,3',5,5'-tetramethyl benzidine (Kirgaard & Perry Laboratories) as the substrate. […] Absorbance was read at 450 nm on a Vmax plate reader (Molecular Devices, Menlo Park, Calif.). Titration curves were fit with a four-parameter nonlinear regression curve-fitting program (KaleidaGraph, Synergy software, Reading, Pa.). Concentrations of IgG variants corresponding to the mid-point absorbance of the titration curve of the standard were calculated and then divided by the concentration of the standard corresponding to the mid-point absorbance of the standard titration curve.

[2] = biological target: T2, human FcγRIIIA-Phe158 α subunit extracellular domain-His6-GST fusion protein (human, UniProt P08637 17-208); assay: ELISA format, hexameric complex on FcγRIIIA-Phe158; separate assays run together with the Val158 assays
T2 construct: ELISA-format target; also called FcγRIIIA-F158; not shown: glutathione S-transferase (GST)
T2 sequence (P08637 other isoform, or with tags, fused parts or gaps, form in doubt): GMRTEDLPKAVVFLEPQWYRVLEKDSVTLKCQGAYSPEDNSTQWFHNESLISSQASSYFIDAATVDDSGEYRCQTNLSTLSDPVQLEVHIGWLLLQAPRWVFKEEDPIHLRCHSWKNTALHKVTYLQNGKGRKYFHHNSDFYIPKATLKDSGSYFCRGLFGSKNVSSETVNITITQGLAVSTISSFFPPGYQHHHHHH

[3] = biological target: T2, human FcγRIIIA-Phe158 α subunit …; assay: ELISA, IgG:IgE hexamer on coated FcγRIIIA-Phe158-GST; value carried over from an earlier table (printed in Table 8)
[4] = biological target: T3, human FcγRIIIA-Val158 with human γ-chain on stably transfected CHO cells (human, UniProt P08637 17-254; P30273 19-86); assay: flow cytometry, monomeric IgG on CHO cells with FcγRIIIA-Val158 α- and γ-chains
T3 construct: whole, on cells; CHO cells stably transfected with the α- and γ-chains of the receptor; also called FcγRIIIA-Val158 (cell-based assay); FcγRIIIA-V158
T3 sequence (P08637 17-254 F176V, chain 1 of 2): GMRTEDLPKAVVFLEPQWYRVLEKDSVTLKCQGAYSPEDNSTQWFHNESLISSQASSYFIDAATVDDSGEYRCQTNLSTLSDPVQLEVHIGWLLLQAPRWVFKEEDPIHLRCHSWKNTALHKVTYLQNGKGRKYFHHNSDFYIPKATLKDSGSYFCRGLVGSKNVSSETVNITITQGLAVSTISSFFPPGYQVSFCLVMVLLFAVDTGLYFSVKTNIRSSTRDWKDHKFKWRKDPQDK
T3 sequence (P30273 19-86, chain 2 of 2): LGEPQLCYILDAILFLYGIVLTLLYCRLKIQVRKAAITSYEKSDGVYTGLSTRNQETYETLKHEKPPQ

[5] = biological target: T4, human FcγRIIIA-Phe158 with human γ-chain on stably transfected CHO cells (human, UniProt P08637 17-254; P30273 19-86); assay: flow cytometry, monomeric IgG on CHO cells with FcγRIIIA-Phe158 α- and γ-chains
T4 construct: whole, on cells; CHO cells stably transfected with the α- and γ-chains of the receptor; also called FcγRIIIA-Phe158 (cell-based assay)
T4 sequence (P08637 17-254, chain 1 of 2): as the sequence (P08637 17-254 F176V, chain 1 of 2) above, with V160F counted along it
T4 sequence (P30273 19-86, chain 2 of 2): as the sequence (P30273 19-86, chain 2 of 2) above
Method: CHO cell transfection was carried out using Superfect (Qiagen) according to the manufacturer's instructions. […] Receptor expression levels were determined by staining with anti-FcγRIII monoclonal antibody 3G8 (Medarex). Binding of IgG1 variants was performed by adding monomeric IgG in staining buffer to 5×10^5 cells and incubating in 96 well round-bottom tissue culture plates (Costar, Cambridge, Mass.) at 4° C. for 30 min. Cells were washed three times with staining buffer and IgG binding detected by addition of 1:200 PE-F(ab')_2 fragment of goat anti-human IgG and incubation for 30 min at 4° C. After washing, immunofluorescence staining was analyzed on a FACScan flow cytometer using Cellquest software (Becton Dickinson). Dead cells were excluded from analysis by addition of 1 μg/ml propidium iodide.
For FcγRIIIA, the selected variants were assayed in the ELISA-format as well as on stable-transfected CHO cell lines expressing the γ-chains (FcγRIIIA-Phe158 or FcγRIIIA-Val158) with the associated human α-chain.

[6] = biological target: T5, human FcγRIIIA-Val158 α subunit extracellular domain-His6-GST fusion protein (human, UniProt P08637 17-208); assay: ELISA format, hexameric complex on FcγRIIIA-Val158
T5 construct: ELISA-format target; also called FcγRIIIA-V158; not shown: glutathione S-transferase (GST)
T5 sequence (P08637 other isoform, or with tags, fused parts or gaps, form in doubt): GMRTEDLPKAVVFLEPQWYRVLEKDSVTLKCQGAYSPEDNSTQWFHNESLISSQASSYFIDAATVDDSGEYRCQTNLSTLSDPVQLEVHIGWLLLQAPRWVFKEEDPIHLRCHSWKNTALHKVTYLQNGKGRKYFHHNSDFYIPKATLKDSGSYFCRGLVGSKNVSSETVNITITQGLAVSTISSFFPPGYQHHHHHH

[7] = biological target: T6, human FcγRIIA-R131 α subunit extracellular domain-His6-GST fusion protein (human, UniProt P12318 34-217); assay: ELISA, IgG:IgE hexamer on coated FcγRIIA-R131-GST; separate assays run together with the H131 assays
T6 construct: ECD-6His-GST fusion made in 293 cells, coated on the plate; also called FcγRIIA-Arg131; not shown: glutathione S-transferase (GST)
T6 sequence: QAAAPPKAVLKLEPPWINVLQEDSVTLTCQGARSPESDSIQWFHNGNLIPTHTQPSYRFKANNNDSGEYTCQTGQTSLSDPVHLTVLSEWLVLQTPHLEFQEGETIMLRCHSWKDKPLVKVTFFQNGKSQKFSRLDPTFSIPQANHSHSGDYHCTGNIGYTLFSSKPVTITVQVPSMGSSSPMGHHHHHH

[8] = biological target: T7, human FcγRIIA-H131 α subunit extracellular domain-His6-GST fusion protein (human, UniProt P12318 34-217); assay: ELISA; binding ratio on FcγRIIA-H131 divided by that on FcγRIIA-R131
T7 construct: also called FcγRIIA-His131; not shown: glutathione S-transferase (GST)
T7 sequence: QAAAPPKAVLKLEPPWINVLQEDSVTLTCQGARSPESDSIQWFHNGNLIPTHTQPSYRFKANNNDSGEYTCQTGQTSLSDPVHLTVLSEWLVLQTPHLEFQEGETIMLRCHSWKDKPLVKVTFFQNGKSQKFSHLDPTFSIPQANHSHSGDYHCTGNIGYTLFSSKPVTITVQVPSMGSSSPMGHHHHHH

[9] = biological target: T7, human FcγRIIA-H131 α subunit …; assay: ELISA, IgG:IgE hexamer on coated FcγRIIA-H131-GST
[10] = biological target: T6, human FcγRIIA-R131 α subunit …; assay: ELISA, IgG:IgE hexamer on coated FcγRIIA-R131-GST; value said to be carried over from Table 6, 7 or 8
[11] = biological target: T8, human FcγRIIA-R131 α subunit extracellular domain-6His-GST fusion (human, UniProt P12318 34-217); assay: ELISA, IgG:IgE hexamers on receptor-GST
T8 construct: also called FcγRIIA-Arg131; not shown: glutathione S-transferase (GST)
T8 sequence: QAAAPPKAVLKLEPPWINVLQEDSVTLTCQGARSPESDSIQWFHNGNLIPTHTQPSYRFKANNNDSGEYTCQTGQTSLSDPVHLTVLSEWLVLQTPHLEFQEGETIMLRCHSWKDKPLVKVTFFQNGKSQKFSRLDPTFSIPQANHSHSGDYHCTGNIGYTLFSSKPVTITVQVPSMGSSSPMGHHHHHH

[12] = biological target: T9, human FcγRIIB α subunit extracellular domain-6His-GST fusion (human, UniProt P31994 43-217); assay: ELISA, IgG:IgE hexamers on receptor-GST
T9 construct: not shown: glutathione S-transferase (GST)
T9 sequence: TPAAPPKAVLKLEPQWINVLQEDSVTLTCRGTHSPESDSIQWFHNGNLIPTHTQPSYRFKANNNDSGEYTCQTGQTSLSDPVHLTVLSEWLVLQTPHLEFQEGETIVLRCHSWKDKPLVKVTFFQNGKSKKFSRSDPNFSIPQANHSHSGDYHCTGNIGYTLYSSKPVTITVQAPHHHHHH

[13] = biological target: T10, human FcγRIIIA-F158 α subunit extracellular domain-6His-GST fusion (human, UniProt P08637 17-208); assay: ELISA, IgG:IgE hexamers on receptor-GST
T10 construct: also called FcγRIIIA-Phe158; not shown: glutathione S-transferase (GST)

[14] = biological target: T11, human FcγRIIA-H131 α subunit extracellular domain-6His-GST fusion (human, UniProt P12318 34-217); assay: ELISA, IgG:IgE hexamers on receptor-GST
T11 construct: also called FcγRIIA-His131; not shown: glutathione S-transferase (GST)
T11 sequence: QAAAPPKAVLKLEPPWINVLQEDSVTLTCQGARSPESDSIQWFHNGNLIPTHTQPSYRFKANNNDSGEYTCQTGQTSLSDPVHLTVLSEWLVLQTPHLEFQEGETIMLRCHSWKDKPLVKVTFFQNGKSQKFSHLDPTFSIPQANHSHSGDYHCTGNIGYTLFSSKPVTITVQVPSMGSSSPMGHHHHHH

T1 sequence (P55899 24-297 limits assumed, chain 1 of 2): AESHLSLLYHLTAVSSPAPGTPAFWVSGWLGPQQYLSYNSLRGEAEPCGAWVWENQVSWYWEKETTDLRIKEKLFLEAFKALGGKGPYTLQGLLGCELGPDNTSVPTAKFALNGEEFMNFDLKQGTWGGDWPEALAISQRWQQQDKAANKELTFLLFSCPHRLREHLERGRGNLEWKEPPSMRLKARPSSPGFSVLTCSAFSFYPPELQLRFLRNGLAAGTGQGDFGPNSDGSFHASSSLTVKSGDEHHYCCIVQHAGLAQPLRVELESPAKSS
T1 sequence (P61769 21-119 limits assumed, chain 2 of 2): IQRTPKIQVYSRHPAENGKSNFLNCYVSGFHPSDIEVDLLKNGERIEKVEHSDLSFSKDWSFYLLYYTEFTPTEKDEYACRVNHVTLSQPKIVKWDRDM

B1: anti-IgE E27 IgG1 T307Q (antibody)
heavy: not shown
light: DIQLTQSPSSLSASVGDRVTITCRASKPVDGEGDSYLNWYQQKPGKAPKLLIYAASYLESGVPSRFSGSGSGTDFTLTISSLQPEDFATYYCQQSHEDPYTFGQGTKVEIKRTVAAPSVFIFPPSDEQLKSGTASVVCLLNNFYPREAKVQWKVDNALQSGNSQESVTEQDSKDSTYSLSSTLTLSKADYEKHKVYACEVTHQGLSSPVTKSFNRGEC
- binding result [1]: binds

B2: anti-IgE E27 IgG1 variant Ser298Ala/Glu333Ala/Lys334Ala (antibody)
heavy: EVQLVESGGGLVQPGGSLRLSCAVSGYSITSGYSWNWIRQAPGKGLEWVASIKYSGETKYNPSVKGRITISRDDSKNTFYLQMNSLRAEDTAVYYCARGSHYFGHWHFAVWGQGTLVTVSSASTKGPSVFPLAPSSKSTSGGTAALGCLVKDYFPEPVTVSWNSGALTSGVHTFPAVLQSSGLYSLSSVVTVPSSSLGTQTYICNVNHKPSNTKVDKKVEPKSCDKTHTCPPCPAPELLGGPSVFLFPPKPKDTLMISRTPEVTCVVVDVSHEDPEVKFNWYVDGVEVHNAKTKPREEQYNATYRVVSVLTVLHQDWLNGKEYKCKVSNKALPAPIAATISKAKGQPREPQVYTLPPSREEMTKNQVSLTCLVKGFYPSDIAVEWESNGQPENNYKTTPPVLDSDGSFFLYSKLTVDKSRWQQGNVFSCSVMHEALHNHYTQKSLSLSPGK
light: DIQLTQSPSSLSASVGDRVTITCRASKPVDGEGDSYLNWYQQKPGKAPKLLIYAASYLESGVPSRFSGSGSGTDFTLTISSLQPEDFATYYCQQSHEDPYTFGQGTKVEIKRTVAAPSVFIFPPSDEQLKSGTASVVCLLNNFYPREAKVQWKVDNALQSGNSQESVTEQDSKDSTYSLSSTLTLSKADYEKHKVYACEVTHQGLSSPVTKSFNRGEC
notes: also called IG2 110
- ratio of binding of the variant to that of native IgG1 [2]: 2.17 ratio (variant/native IgG1)
- ratio of binding of the variant to that of native IgG1 [3]: 1.51 ratio (variant/native IgG1)
- ratio of binding of the variant to that of native IgG1 [4]: 1.65 ratio (variant/native IgG1)
- ratio of binding of the variant to that of native IgG1 [5]: 3.42 ratio (variant/native IgG1)
- ratio of binding of the variant to that of native IgG1 [6]: 1.11 ratio (variant/native IgG1)

B3: anti-IgE E27 IgG1 variant Lys320Ala (antibody)
heavy: not shown
light: DIQLTQSPSSLSASVGDRVTITCRASKPVDGEGDSYLNWYQQKPGKAPKLLIYAASYLESGVPSRFSGSGSGTDFTLTISSLQPEDFATYYCQQSHEDPYTFGQGTKVEIKRTVAAPSVFIFPPSDEQLKSGTASVVCLLNNFYPREAKVQWKVDNALQSGNSQESVTEQDSKDSTYSLSSTLTLSKADYEKHKVYACEVTHQGLSSPVTKSFNRGEC
notes: also called K320(339)A; IG2 48
- ratio of binding of the variant to that of native IgG1 [7]: 1.05 ratio (variant/native IgG1)
- H131/R131 [8]: 1.1 ratio (H131 value/R131 value)
- ratio of binding of the variant to that of native IgG1 [9]: 1.13 ratio (variant/native IgG1)
- ratio of binding of the variant to that of native IgG1 [10]: 1.14 ratio (variant/native IgG1)

B4: E27 IgG1 variant S267(280)G (antibody)
heavy: not shown
light: DIQLTQSPSSLSASVGDRVTITCRASKPVDGEGDSYLNWYQQKPGKAPKLLIYAASYLESGVPSRFSGSGSGTDFTLTISSLQPEDFATYYCQQSHEDPYTFGQGTKVEIKRTVAAPSVFIFPPSDEQLKSGTASVVCLLNNFYPREAKVQWKVDNALQSGNSQESVTEQDSKDSTYSLSSTLTLSKADYEKHKVYACEVTHQGLSSPVTKSFNRGEC
notes: also called IG2 189
- ratio to native IgG1 [11]: 1.18
- ratio to native IgG1 [12]: 0.95
- ratio to native IgG1 [13]: 0.08
- ratio to native IgG1 [14]: 0.59
